Measurements from PMC3936751.
pKd: −log10 of the molar value.

Experiments:
[1] = test system: T1, hCdc45-His6 (Homo sapiens); assay: EMSA; details: EMSA: 50 mM HEPES-KOH pH 7.5, 150 mM KCl, 0.5 mM DTT, 50 ug/ml BSA, 30 C 10 min, SPR: 20 mM HEPES-KOH pH 7.5, 150 mM KCl, 1 mM DTT, 3 mM EDTA, 0.005% P20 …
T1 sequence: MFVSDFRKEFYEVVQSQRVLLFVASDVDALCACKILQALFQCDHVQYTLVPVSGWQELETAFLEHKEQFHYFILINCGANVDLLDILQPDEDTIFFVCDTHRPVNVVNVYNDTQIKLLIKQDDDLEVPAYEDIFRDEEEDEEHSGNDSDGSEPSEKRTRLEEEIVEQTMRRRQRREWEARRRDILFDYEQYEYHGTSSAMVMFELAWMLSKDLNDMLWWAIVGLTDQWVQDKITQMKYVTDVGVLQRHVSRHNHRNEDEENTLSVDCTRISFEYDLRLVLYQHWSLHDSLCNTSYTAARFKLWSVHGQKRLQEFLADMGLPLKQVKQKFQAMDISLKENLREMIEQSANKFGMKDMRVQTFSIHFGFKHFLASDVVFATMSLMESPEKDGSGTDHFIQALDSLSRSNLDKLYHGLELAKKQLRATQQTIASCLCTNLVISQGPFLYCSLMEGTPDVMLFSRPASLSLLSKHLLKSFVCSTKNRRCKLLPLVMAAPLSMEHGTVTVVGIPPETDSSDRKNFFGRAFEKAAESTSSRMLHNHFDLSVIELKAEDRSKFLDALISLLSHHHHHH

[2] = test system: T1, hCdc45-His6 (Homo sapiens); assay: SPR; details: 3 mM EDTA, EMSA: 50 mM HEPES-KOH pH 7.5, 150 mM KCl, 0.5 mM DTT, 50 ug/ml BSA, 30 C 10 min, SPR: 20 mM HEPES-KOH pH 7.5, 150 mM KCl, 1 mM DTT, 0.005% P20 …; for pKd: Cdc45 immobilized by anti-His; for binding signal: scale: fold weaker than Y/bubble

Substance | pKd [2] | binding signal [2] | also measured
113-mer ssDNA | – | – | binding signal (% bound at 5 uM Cdc45) [1]: 85
Y-shaped DNA M3S4 (17 bp, two 17-mer overhangs) | 8.11 | – | –
R-loop | – | > 10 | –
bubble M5M6 (22 bp, 20 nt bubble, 22 bp) | 8.10 | – | –
67-mer ssDNA | – | – | binding signal (fold less efficient than 113-mer) ([1]; 2 nM DNA): 8.5
D-loop M5M6M2 | – | > 10 | –
